Source: patent publication US20080267971A1
Each block holds one binder with its values, some of them ahead of it.

Tests used:
[1] = molecular target: human Angiopoietin-2 (human) (UniProt O15123); assay: inhibition of rhAng-2 binding to its receptor
human Ang-2443 (human) = human Ang-2443 (human) (UniProt O15123); assay: ELISA
[2] = molecular target: Mouse/Human chimeric Ang-2 with the human StuI-TfiI fragment (mouse/human chimera) (UniProt O35608); assay: ELISA
[3] = molecular target: human Ang-2 changed at positions 365 and 367 (human) (UniProt O15123); assay: ELISA
[4] = molecular target: Mouse/Human Ang-2 StuI chimeric molecule (mouse; human) (UniProt O35608); assay: ELISA
[5] = molecular target: T1, Human Ang-1/2 BsmI chimeric molecule (human); assay: ELISA
T1 sequence: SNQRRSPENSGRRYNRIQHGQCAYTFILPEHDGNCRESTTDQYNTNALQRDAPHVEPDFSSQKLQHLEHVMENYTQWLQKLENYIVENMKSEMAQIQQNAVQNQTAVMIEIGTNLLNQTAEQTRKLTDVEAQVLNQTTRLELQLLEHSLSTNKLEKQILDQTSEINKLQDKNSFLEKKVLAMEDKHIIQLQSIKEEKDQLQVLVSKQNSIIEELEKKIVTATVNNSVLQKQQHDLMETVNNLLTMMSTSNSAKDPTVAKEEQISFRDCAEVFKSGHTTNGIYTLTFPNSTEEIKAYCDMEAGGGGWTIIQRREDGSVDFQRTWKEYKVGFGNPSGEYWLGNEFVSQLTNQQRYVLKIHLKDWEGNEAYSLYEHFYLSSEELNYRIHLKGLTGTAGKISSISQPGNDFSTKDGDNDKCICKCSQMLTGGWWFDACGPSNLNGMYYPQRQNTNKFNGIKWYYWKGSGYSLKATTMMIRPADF

[6] = molecular target: human Ang-2 H375Q (human) (UniProt O15123); assay: ELISA
[7] = molecular target: human Ang-2 V345M (human) (UniProt O15123); assay: ELISA
[8] = molecular target: mouse Angiopoietin-2 (mouse) (UniProt O35608); assay: ELISA; member tied by Table 16

B1: mAb 3.28.1 (antibody, part only; not given: light chain, V domains shown, part only)
VH: EVQLVESGGGLVQPGGSLRLSCAASGFTFSSSWMSWVRQAPGKGLEWVANIKQDGSDKYYVDSVKGRFTISRDNAKNSLYLQMNSLRAEDTAVYYCVRDKGSGWFDYWGQGTLVTVSSA
OD650 in inhibition assay [1]: 0.0588 OD650
% of binding to human Ang-2 (human Ang-2443 (human)): 100%
% of binding to human Ang-2 [2]: 31%
% of binding to human Ang-2 [3]: 100%
% of binding to human Ang-2 [4]: 100%
% of binding to human Ang-2 [5]: 100%
% of binding to human Ang-2 [6]: 100%
% of binding to human Ang-2 [7]: 100%

B2: mAb 5.2.1 (antibody, part only; not given: light chain, V domains shown, part only)
VH: QVQLVESGGGVVQPGRSLRLSCAASGFTFSSYGMHWVRQAPGKGLEWVAVIWFDGFNKYYADSVKGRFTISRDNSKNTLYLQMNSLRAEDTAVYHCARDRGYSGYDHYYGMDVWGQGTTVTVSSA
% of immunoreactivity on human Ang-2 [8]: 100%
OD650 in inhibition assay [1]: 0.069 OD650
% of binding to human Ang-2 (human Ang-2443 (human)): 100%
% of binding to human Ang-2 [2]: 100%
% of binding to human Ang-2 [3]: 100%
% of binding to human Ang-2 [4]: 100%
% of binding to human Ang-2 [5]: 100%
% of binding to human Ang-2 [6]: 100%
% of binding to human Ang-2 [7]: 100%

B3: mAb 5.28.1 (antibody, V domains shown)
VH: EVQLVESGGIVVQPGGSLRLSCAASGFTFDDYTMHWVRQTPGKGLEWVSLISWDGGSTYYADSVKGRFTISRDNSKNSLYLQMNSLRTEDTALYYCAKDIDIAVAGTGFDHWGQGTLVTVSS
VL: EIVMTQSPATLSVSPGERATLSCRASQSVTSNLAWYQQKPGQAPRLLIYGALIRATGIPARFSGSGSGTEFTLTISSLQSEDFAVYYCQQYNNWPFTFGPGTKVDIKR
% of binding to human Ang-2 [3]: 100%

B5: mAb 5.39.1 (antibody, V domains shown)
VH: QVQLVQSGAEVTKPGASVKVSCKASGYTFTAYHMYWVRQAPGQGLEWMGWINPNSGGTNYAQKFQGRVTMTRDTSISTAYMELSRLRSDDSPVYYCARDQGIAAAGPFDYWGQGTLVTVSS
VL: EIVMTQSPATLSVSPGDRATLSCRASQSVSSNFAWYQQKPGQAPRLLIYGSSTRATGIPARFSGSGSGTEFTLTISSLQSEDFAVYYCQQYHYWWTFGQGTKVEFKR
% of binding to human Ang-2 [3]: 100%

B7: mAb 3.3.2 (antibody, V domains shown)
VH: EVQLVESGGGLVQPGGSLRLSCAVSGFTFSSYWMSWVRQAPGKGLEWVANIKQDGSEKYYVDSVKGRFTISRDNAKNSLYLQMNSLRAEDTAVYYCARDQGIAVAGPFDYWGQGTLVTVSS
VL: EIVMTQSPATLSVSPGERATLSCRASQTVSSDLAWYQQKPGQAPRLLIYGASIRATGIPARFSGSGSGTEFTLTISSLQSEDFAVYSCQQYYNWWTFGQGTKVEIKR
% of binding to human Ang-2 [3]: 100%

B8: mAb 5.62.1 (antibody, V domains shown)
VH: EVQLVESGGGLVQPGGSLRLSCAASGFTFSSYWMSWVRQAPGKGLEWVANIKQDGSEKYYVDSVKGRFTISRDNAKNSLYLQMNSLRAEDTAVYYCARDPGIAVAGPFDYWGQGTLVTVSS
VL: EIVMTQSPATLSVSPGERATLSCRASQSVSSNLAWYQQKPGQAPRLLIYGAFTRATGIPARFSGSGSGTEFTLTISSLQSEDFAVYYCQQYNHWWTFGQGTKVGIKR
% of binding to human Ang-2 [3]: 100%

Second part, the binder after the results:

% of binding to human Ang-2 [3]: 100%
B4: mAb 6.3.1 (antibody, V domains shown)
VH: QVQLVQSGAEVKKPGASVKVSCKASGYTFTGYFMHWVPQAPGQGLEWMGWINPNSGGTNYAQNFQGRVTMTRDTSISTAYMELSRLRSDDTPVYYCARDPWQNWNSYFDYWGQGTLVTVSS
VL: DIQMTQSPSSLSASVGDRVTITCRASQSIRSYLNWYQQKPGKAPKVLIYAASSLQSGVPSRFSGSGSGTDFTLTISSLQPEDFATYYCQQSYSTLCSFGQGTKLEIKR

% of binding to human Ang-2 [3]: 100%
B6: mAb 5.86.1 (antibody, V domains shown)
VH: QVQLVQSGAEVKKPGASVKVSCKASGYTFTGYHMYWVRQAPGQGLEWLGWINPNSGGTNYAQKFQGRVTMTRDTSISTAYMELSRLRSDDTAVYYCVRDQGIAAAGPFDYWCQGTLVTVSS
VL: DIRMTQSPSSLSASVGDRVTITCRASQRISTYLNWYQQKPGKAPKFLIYAASSLQSGVPSRFSGSGSGTDFTLTISSLQPEDFATYYCQQSYTTPFTFGPGTKVDIKR

% of binding to human Ang-2 [3]: 100%
B9: mAb 5.88.3 (antibody, V domains shown)
VH: EVQMVESGGGLVQPGGSLRLSCAASGFTLRSYWMSWVRQAPGKGLEWVANIKEDGSEKYHVDSVKGRFTISRDNAENSLFLQMSSLRAEDTAVYYCARDMEASAGLFDYWGQGTLVTVSS
VL: EIVMTQSPATLSVSPGERAILSCRASQSISSNLAWYQQKPGQAPRLLIYGASTRATGIPARFSGSGSGTEFTLTISSLQSEDFAVYYCQQYNYWWTFGQGTKVEIKR
